This passage reports adherence of GBS strain COH31 to immobilized human fibrinogen (0.1 µM per well), percent of inoculum bound (% of inoculum) results from article PMC3464228.

The target of this test is purified human fibrinogen (human) (UniProt P02671).
Sequence of UniProt P02671 (P02671 36-866, chain 1 of 3): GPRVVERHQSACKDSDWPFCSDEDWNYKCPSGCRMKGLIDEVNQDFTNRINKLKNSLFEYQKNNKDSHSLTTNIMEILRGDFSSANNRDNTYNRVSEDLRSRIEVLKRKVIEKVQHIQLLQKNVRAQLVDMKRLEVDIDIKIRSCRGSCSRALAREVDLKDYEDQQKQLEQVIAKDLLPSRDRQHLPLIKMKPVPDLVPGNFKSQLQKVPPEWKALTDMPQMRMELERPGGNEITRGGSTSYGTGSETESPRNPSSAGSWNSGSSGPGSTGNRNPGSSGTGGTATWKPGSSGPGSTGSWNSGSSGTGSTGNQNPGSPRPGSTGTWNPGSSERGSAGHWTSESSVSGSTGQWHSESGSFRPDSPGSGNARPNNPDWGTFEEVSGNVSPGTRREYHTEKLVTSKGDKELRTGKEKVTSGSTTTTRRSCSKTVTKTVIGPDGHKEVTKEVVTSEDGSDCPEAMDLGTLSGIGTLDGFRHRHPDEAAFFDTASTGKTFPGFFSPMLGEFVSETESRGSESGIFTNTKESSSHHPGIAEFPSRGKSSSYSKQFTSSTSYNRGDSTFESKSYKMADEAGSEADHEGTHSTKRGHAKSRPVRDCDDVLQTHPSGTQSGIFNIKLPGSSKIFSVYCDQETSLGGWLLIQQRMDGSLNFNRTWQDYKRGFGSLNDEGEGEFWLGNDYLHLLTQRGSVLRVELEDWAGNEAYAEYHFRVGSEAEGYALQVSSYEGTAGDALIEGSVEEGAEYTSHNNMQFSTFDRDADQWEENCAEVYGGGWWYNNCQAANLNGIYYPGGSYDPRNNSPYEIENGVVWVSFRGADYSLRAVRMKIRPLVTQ
Sequence of UniProt P02671 (P02675 45-491, chain 2 of 3, further chain): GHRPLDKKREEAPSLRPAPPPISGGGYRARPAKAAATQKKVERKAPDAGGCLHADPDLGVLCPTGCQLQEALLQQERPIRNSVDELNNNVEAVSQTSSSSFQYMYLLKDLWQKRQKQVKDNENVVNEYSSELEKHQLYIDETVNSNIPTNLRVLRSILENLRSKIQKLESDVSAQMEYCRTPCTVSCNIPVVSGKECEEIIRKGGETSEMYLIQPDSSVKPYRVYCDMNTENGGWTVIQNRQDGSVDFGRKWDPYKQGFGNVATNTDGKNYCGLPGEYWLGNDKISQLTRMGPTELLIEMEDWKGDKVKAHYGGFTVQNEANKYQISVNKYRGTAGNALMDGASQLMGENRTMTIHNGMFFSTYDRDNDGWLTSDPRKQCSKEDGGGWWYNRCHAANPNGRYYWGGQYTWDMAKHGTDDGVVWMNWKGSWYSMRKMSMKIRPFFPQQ
Sequence of UniProt P02671 (P02679 27-453, chain 3 of 3, further chain): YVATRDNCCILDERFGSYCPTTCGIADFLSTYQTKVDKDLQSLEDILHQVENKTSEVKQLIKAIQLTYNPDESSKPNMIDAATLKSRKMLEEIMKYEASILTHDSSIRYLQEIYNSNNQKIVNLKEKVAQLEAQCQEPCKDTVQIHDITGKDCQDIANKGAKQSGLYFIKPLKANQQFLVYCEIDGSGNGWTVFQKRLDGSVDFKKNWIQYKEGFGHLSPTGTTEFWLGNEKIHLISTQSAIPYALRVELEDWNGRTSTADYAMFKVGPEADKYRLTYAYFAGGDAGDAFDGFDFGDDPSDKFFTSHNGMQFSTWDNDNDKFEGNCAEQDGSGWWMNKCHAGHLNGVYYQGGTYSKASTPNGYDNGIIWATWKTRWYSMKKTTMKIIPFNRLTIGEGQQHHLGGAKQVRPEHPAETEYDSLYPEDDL

With “serine-rich repeat glycoprotein Srr1 of Streptococcus agalactiae (native, surface expressed) (natural protein)”, the adherence of GBS strain COH31 to immobilized human fibrinogen (0.1 µM per well), percent of inoculum bound (% of inoculum) came out at 16.
